Here are results for one molecule from PMC12631112.

Assay [1] addresses serum IgM of healthy donors (mu heavy and light chains) (human (endogenous in serum)). As to the kind of experiment: ELISA; IgM-CD5L ELISA: anti-human IgM (MH-15-1) coated captures IgM from serum diluted in HPE buffer, room temperature; IgM-bound CD5L detected with a-CD5L-HRP (clone 5B5, 0.5 µg/mL); compared to total IgM.
The target in assay [2] is IgM of patients with IgM MGUS and WM (n = 29), IgM-CD5L ELISA. The description is as above.
The target of assay [3] is serum IgM of WM patient 11 (human (endogenous in serum)). Nature of the assay: SEC + ELISA; serum diluted in PBS fractionated by HP-SEC on Superose 6 increase 10/300 GL in PBS, 0.5 mL/min; IgM, IgM-J-chain and IgM-CD5L measured by ELISA in each 250 µL fraction.

B1: CD5-Like (CD5L) (natural protein)
chain: SPSGVRLVGGLHRCEGRVEVEQKGQWGTVCDDGWDIKDVAVLCRELGCGAASGTPSGILYEPPAEKEQKVLIQSVSCTGTEDTLAQCEQEEVYDCSHDEDAGASCENPESSFSPVPEGVRLADGPGHCKGRVEVKHQNQWYTVCQTGWSLRAAKVVCRQLGCGRAVLTQKRCNKHAYGRKPIWLSQMSCSGREATLQDCPSGPWGKNTCNHDEDTWVECEDPFDLRLVGGDNLCSGRLEVLHKGVWGSVCDDNWGEKEDQVVCKQLGCGKSLSPSFRDRKCYGPGVGRIWLDNVRCSGEEQSLEQCQHRFWGFHDCTHQEDVAVICSG
Turning to B1, the values for the ratio between IgM-CD5L complexes and total IgM in assay [1] and in assay [2] were 1 and 0.1, respectively. Further, the percent of IgM molecules that contain CD5L in assay [3] is 10%.
